Results on 1 substance are retold here after EP0896625B1.

What all share (assay): cell-based or functional assay
Test [1] deals with [Met-(-1)]rOnc (Rana pipiens).
Test [2] deals with [Met-(-1)]rOncG20 (Rana pipiens).
For test [3], the target named is Native ONCONASE (Rana pipiens).
Another test has as its target rEDN(1-21)rOncG26.
For test [4], the target named is recombinant human eosinophil-derived neurotoxin (human).
Test [5] concerns the target rEDN(1-21)rOnc (human; Rana pipiens).

Some results are limits rather than exact numbers.

On to “Placental ribonuclease inhibitor (from UniProt P13489 2-461)”, for which the Fold Difference, (+)PRI against (-)PRI is 1.4 fold in test [1]; 0.9 fold in test [2]; 1.2 fold in test [3]; 21 fold in the test with rEDN(1-21)rOncG26; greater than 30.7 fold in test [4]. In addition, the IC50 (ng/ml), (+)PRI, inhibition of protein synthesis in the rabbit reticulocyte lysate in test [1] is 140 ng/mL; in test [2] it was 24 ng/mL; in test [3] it was 0.24 ng/mL; in the test with rEDN(1-21)rOncG26 it was 600 ng/mL; in test [4], greater than 40 ng/mL; in test [5], 3200 ng/mL.
